Experimental data as given in PMC6888640, “Key Factors for a One-Pot Enzyme Cascade Synthesis of High Molecular Weight Hyaluronic Acid” (International Journal of Molecular Sciences, 2019).

How the values were obtained:
[1] = biological target: T1, AtGlcAK (Arabidopsis thaliana, UniProt Q93ZC9); settings: substrate inhibition; 5 mM GlcA, 5 mM MgCl2, 100 mM HEPES pH 7.5, 25 °C
T1 construct: gene GLCAK1
T1 sequence (Q93ZC9 1-362): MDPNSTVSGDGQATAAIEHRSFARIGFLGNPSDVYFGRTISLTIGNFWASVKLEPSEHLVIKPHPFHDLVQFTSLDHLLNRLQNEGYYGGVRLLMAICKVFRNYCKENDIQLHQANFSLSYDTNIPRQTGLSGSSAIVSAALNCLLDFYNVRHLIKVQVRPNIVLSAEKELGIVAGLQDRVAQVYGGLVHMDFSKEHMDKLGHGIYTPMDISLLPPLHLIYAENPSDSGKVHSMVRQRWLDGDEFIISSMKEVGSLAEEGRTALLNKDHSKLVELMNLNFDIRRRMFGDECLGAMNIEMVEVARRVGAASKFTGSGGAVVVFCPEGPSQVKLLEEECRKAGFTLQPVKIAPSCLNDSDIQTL
Excerpt: initial rates by multiplexed capillary electrophoresis; uncompetitive substrate-inhibition fit on AtGlcAK

[2] = substrate: Nc1ncnc2c1ncn2[C@@H]1O[C@H](COP(=O)(O)OP(=O)(O)OP(=O)(O)O)[C@@H](O)[C@H]1O; experiment: purified protein; settings: apparent, substrate-inhibition fit, 5 mM GlcA, 5 mM MgCl2, 100 mM HEPES pH 7.5, 25 °C
[3] = substrate: O=P(O)(O)O[C@H]1O[C@H](CO)[C@@H](O)[C@H](O)[C@H]1O; experiment: initial rates by multiplexed capillary electrophoresis; Michaelis-Menten fit; format: biochemical, Arabidopsis thaliana; settings: 5 mM UTP, 15 mM MgCl2, 100 mM HEPES pH 8, 25 °C
Excerpt: (§1) initial rates by multiplexed capillary electrophoresis; Michaelis-Menten fit on AtUSP

[4] = substrate: O=c1ccn([C@@H]2O[C@H](COP(=O)(O)OP(=O)(O)OP(=O)(O)O)[C@@H](O)[C@H]2O)c(=O)[nH]1; experiment: as above; format: biochemical, Arabidopsis thaliana; settings: 5 mM Glc-1-P, 15 mM MgCl2, 100 mM HEPES pH 8, 25 °C
Excerpt: as §1

Molecule: Nc1ncnc2c1ncn2[C@@H]1O[C@H](COP(=O)(O)OP(=O)(O)OP(=O)(O)O)[C@@H](O)[C@H]1O [ATP]
- AtGlcAK [1]: 2.87 mM

B1: AtGlcAK (Arabidopsis thaliana) (protein)
chain: T1 sequence (Q93ZC9 1-362)
- Km [2]: 8560 µM

B2: AtUSP (Arabidopsis thaliana) (protein)
chain: ASTVDSNFFSSVPALHSNLGLLSPDQIELAKILLENGQSHLFQQWPELGVDDKEKLAFFDQIARLNSSYPGGLAAYIKTAKELLADSKVGKNPYDGFSPSVPSGENLTFGTDNFIEMEKRGVVEARNAAFVLVAGGLGERLGYNGIKVALPRETTTGTCFLQHYIESILALQEASNKIDSDGSERDIPFIIMTSDDTHSRTLDLLELNSYFGMKPTQVHLLKQEKVACLDDNDARLALDPHNKYSIQTKPHGHGDVHSLLYSSGLLHKWLEAGLKWVLFFQDTNGLLFNAIPASLGVSATKQYHVNSLAVPRKAKEAIGGISKLTHVDGRSMVINVEYNQLDPLLRASGFPDGDVNCETGFSPFPGNINQLILELGPYKDELQKTGGAIKEFVNPKYKDSTKTAFKSSTRLECMMQDYPKTLPPTARVGFTVMDIWLAYAPVKNNPEDAAKVPKGNPYHSATSGEMAIYRANSLILQKAGVKVEEPVKQVLNGQEVEVWSRITWKPKWGMIFSDIKKKVSGNCEVSQRSTMAIKGRNVFIKDLSLDGALIVDSIDDAEVKLGGLIKNNGWTMESVDYKDTSVPEEIRIRGFRFNKVEQLEKKLTQPGKFSVED
notes: full-length synthetic codon-optimized gene, pET-16b(+), N-terminal His10 tag, E. coli BL21(DE3), IMAC
- Km [3]: 580 µM
- Km [4]: 440 µM
